Values of other authors in US5998408A, “Triterpene derivatives with immunosuppressant activity” (Merck & Co., Inc., priority 1997, dated 1999).

Biological target: T1, Kv 1.3 channels (CHO cells transfected with Kv 1.3 channels) (Homo sapiens, UniProt P22001)
T1 construct: expressed in transfected cells; host or cells: CHO cells
Details: stated property of the reference blocker used to set the efflux window

T1 sequence (P22001 whole entry): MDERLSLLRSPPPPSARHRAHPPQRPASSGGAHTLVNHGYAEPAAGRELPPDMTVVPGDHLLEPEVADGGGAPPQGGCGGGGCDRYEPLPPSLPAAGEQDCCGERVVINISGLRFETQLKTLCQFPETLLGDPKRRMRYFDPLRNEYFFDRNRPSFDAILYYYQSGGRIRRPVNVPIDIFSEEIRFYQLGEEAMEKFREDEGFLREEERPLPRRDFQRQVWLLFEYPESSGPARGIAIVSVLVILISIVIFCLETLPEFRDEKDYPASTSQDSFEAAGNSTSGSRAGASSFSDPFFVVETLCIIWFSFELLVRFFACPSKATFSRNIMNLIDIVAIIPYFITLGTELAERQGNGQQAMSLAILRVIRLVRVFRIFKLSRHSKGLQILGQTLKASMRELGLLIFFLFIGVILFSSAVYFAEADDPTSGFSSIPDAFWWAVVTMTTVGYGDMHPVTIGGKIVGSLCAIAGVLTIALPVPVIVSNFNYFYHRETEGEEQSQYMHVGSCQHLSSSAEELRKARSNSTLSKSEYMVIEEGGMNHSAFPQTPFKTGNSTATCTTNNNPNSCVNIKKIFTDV

## margatoxin (TIINVKCTSPKQCLPPCKAQFGQSAGAKCMNGKCKCYPH; UniProt P40755 1-39, looked up)
  IC50: 0.1 nM
